Experimental data published in article doi:10.1101/2021.03.03.433707 (bioRxiv, 2021).
Residue numbers refer to the chain shown, from its start.

T1: MukB long hinge (LH, 568-863) (E. coli, UniProt P22523 568-863)
T1 sequence (looked up): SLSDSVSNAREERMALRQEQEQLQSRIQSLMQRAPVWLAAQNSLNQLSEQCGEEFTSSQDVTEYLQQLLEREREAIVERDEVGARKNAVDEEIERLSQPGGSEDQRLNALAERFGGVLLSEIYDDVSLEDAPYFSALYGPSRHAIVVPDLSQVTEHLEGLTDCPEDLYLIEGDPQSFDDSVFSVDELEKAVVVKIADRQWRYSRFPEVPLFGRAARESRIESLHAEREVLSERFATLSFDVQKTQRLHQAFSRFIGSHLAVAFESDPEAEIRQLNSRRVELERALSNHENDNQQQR

T2: MukB^KKK (full length MukB D697K D745K E753K) (E. coli, UniProt P22523 1-1486, D697K | D745K | E753K)
T2 sequence (looked up): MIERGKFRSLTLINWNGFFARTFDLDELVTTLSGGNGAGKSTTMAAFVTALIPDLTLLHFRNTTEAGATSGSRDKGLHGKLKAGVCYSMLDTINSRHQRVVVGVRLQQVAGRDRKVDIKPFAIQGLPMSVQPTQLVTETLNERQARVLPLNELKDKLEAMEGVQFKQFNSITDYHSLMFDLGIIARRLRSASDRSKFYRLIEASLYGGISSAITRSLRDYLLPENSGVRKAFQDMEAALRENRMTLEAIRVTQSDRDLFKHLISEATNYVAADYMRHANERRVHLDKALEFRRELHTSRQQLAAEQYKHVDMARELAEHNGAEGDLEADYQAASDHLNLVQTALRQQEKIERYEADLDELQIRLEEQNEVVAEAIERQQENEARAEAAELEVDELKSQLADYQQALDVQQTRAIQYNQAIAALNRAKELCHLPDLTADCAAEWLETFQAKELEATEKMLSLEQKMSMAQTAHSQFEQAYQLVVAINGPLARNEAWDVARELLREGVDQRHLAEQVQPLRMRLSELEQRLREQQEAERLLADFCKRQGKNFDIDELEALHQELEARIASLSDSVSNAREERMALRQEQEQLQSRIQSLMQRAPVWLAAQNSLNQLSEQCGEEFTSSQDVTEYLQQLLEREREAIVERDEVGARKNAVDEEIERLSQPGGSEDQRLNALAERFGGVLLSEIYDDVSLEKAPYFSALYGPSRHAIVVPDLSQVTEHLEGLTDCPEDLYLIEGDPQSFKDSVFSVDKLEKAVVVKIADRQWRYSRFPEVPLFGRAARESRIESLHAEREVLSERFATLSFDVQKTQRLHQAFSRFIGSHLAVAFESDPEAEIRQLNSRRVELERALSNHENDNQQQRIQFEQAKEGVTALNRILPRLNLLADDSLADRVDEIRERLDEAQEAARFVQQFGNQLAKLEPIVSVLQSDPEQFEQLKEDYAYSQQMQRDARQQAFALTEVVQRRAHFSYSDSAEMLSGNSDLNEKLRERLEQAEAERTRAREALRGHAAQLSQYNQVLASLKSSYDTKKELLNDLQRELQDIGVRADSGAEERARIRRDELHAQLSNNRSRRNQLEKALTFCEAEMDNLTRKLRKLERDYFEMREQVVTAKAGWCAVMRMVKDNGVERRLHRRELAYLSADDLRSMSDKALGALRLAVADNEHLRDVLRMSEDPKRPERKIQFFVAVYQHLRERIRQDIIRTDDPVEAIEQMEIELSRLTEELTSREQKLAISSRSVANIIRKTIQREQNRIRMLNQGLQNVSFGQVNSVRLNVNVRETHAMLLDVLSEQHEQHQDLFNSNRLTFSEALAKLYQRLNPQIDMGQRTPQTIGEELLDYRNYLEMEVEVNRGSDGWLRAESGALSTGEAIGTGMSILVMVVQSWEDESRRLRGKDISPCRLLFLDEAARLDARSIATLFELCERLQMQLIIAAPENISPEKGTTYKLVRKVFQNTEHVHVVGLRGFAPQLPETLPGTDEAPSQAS

T3: MukB, full length, wild type (E. coli, UniProt P22523 1-1486)
T3 sequence (looked up): T2 sequence (looked up) with K697D, K745D, K753E

B1: MatPΔ18C (printed MatPA18C; 1-132) (domain or fragment, E. coli, UniProt P0A8N0 1-132, looked up)
chain: MKYQQLENLESGWKWKYLVKKHREGELITRYIEASAAQEAVDVLLSLENEPVLVNGWIDKHMNPELVNRMKQTIRARRKRHFNAEHQHTRKKSIDLEFIVWQRLAGLAQRRGKTLSETIVQLIEDAENKEKY
B2: MatP-Cys-His labelled with Cy3B (MatP-Cy3B) (domain or fragment, E. coli, UniProt P0A8N0 1-132, looked up)
chain: B1 chain
modifications: Cy3B maleimide on a single cysteine engineered into the linker between MatP and its 6xHis-tag
B3: MukB short hinge (SH, 667-779) (domain or fragment, E. coli, UniProt P22523 667-779, looked up)
chain: GGSEDQRLNALAERFGGVLLSEIYDDVSLEDAPYFSALYGPSRHAIVVPDLSQVTEHLEGLTDCPEDLYLIEGDPQSFDDSVFSVDELEKAVVVKIADRQWRYSRFPEVPLFG

Columns and labels:
[1] = target: T1, MukB long hinge (LH, 568-863); test: native MS
[2] = target: T1, MukB long hinge (LH, 568-863); test: ITC
[3] = target: T2, MukB^KKK (full length MukB D697K D745K …); test: fluorescence correlation spectroscopy
[4] = target: T3, MukB, full length, wild type; test: fluorescence correlation spectroscopy
native MS = target: the molecule itself; test: native MS
[5] = target: B1; test: native MS

How did the “stoichiometry N” value [1] turn out when B1 was run?
The value was 1 MatP dimer per LH dimer.

And the Kd [2]?
Its Kd is 590 nM.

What about the dH [2] of the same binder?
The dH was -16.8 kcal/mol.

What about the “stoichiometry N” value [2] of the same binder?
Its value is 0.96.

How did the Kd [3] turn out when B2 was run?
Its Kd is ~1600 nM.

And the Kd [4]?
The Kd was ~250 nM.

What does the source list for B3?
stoichiometry N (native MS): 2; binding result [5]: binds
